For assay [1], the target named is T1, human NKp30-his protein (KACTUS; Cat: NKP-HM430) (human, UniProt O14931 19-135, limits assumed).
T1 construct: Bought protein (KACTUS NKP-HM430); not shown: His tag
T1 sequence (looked up): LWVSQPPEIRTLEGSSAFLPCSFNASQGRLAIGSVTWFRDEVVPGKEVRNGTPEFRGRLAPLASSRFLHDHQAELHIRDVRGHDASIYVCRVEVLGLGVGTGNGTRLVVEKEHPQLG
Nature of the assay: BLI (Octet Red96e), antibody captured on AHC sensor, 100 nM human NKp30-his in solution, 1:1 fit. Here is the method:
After equilibration of the AHC sensor with 0.02% PBST (0.02% Tween 20, pH 7.4, 1*PBS) as buffer for 60 s, the NKp30 antibody in the sample plate was immobilized for 300 s and second equilibration was performed for 180 s. […] human NKp30-his protein (KACTUS; Cat: NKP-HM430) was bound with NKp30 antibody for 300 s and then dissociated for 600 s. After dissociation, 10 mM glycine (pH 2.0) was used as regeneration buffer to regenerate for 30 s.
Subtract the result plot for reference channel H1 from the test result plot. The experimental data fit the 1:1 binding model. The molecular weight of 35 kDa was used to calculate the molar concentration of human NKp30 protein.

Assay [2] addresses T1, human NKp30-his protein (KACTUS; Cat: …). Briefly: ELISA, Human-NKp30-His coated at 0.2 µg/mL, antibody from 10 µg/mL in 3-fold steps, goat anti-human Fc, OD450 (Example 11). On the procedure: Human-NKp30-His (purchased from KACTUS, item No. NKP-HM430) was diluted to 0.2 μg/mL with the coating solution (1×PBS, pH 7.4), and was coated into 96-well enzyme-labelled plates at 100 μL/well and allowed to stand overnight at 4° C. The coating solution was poured off, the plate was washed with 1×PBST at 300 μL/well, washed with a plate washer for 4 times, and patted dry on a plate paper. The plate was blocked with 3% skimmed milk powder at 300 μL/well, and incubated at 37° C. for 1 h. The blocking solution was poured off, washed with a plate washer for 4 times, and patted dry on a plate paper. The reference product and the test product were diluted with 3% skimmed milk powder to 10 μg/mL, and the initial concentration was diluted by 3 times. A total of 11 gradients were diluted, and another blank well was set, and only diluent was added. It was incubated at 37° C. and 100 μL/well for 1 h. Liquid in the wells was discarded, and washed with a plate washer for 4 times, and patted dry on a plate paper. The goat anti-human Fc was diluted with 3% skimmed milk powder at 1: 20,000 and 100 μL/well, and incubated at 37° C. for 1 h. The plate was washed with a plate washer for 6 times, and patted dry on a plate paper. TMB color developing solution was added at 100 μL/well, and wrapped with an aluminum foil, and the color was developed at 37° C. for 8 minutes, protected from light. The termination solution 1 M HCl was added at 100 μL/well to terminate the color development reaction. It was read at 450 nm on an enzyme-labeled instrument.

The results in this text go back to patent US20240150460A1 (SHENGHE CHINA BIOPHARMACEUTICAL, published 2024).

B1: antibody 8 (antibody, V domains shown)
VH: QVQLVESGGGLVQTGDSLRLSCAASGRTYDNYAMGWFRQAPGKEREFVAAFSQNGGRTDYADSVKGRFAISDDRSTVHLDMNSLLPEDTAVYYCAARPPAYFSNAVYSKVDEYRYWGQGTQVTVSS
notes: expressed in CHO cells
B1 registered a dissociation constant (Kd) in assay [1] of 9.11 nM.

B2: antibody 4 (antibody, V domains shown)
VH: QVQLVESGGGLVQPGGSLRLSCAASGSIFKINAMGWYRQAPGKLRELVAGITSGGSTNYADSVKGRFTISRDNAKNTLYLQMNSLKPDDTAVYYCNQLGFPQYWGQGTQVTVSS
notes: expressed in CHO cells
In assay [1], B2 yielded an equilibrium dissociation constant (Kd) of 4.97 nM. Against the preceding molecule, the Kd is about 1.8-fold lower.

B3: antibody 5 (antibody, V domains shown)
VH: EVQVVESGGGLVQAGGSLTLSCAASGRPFSTFPTSMGWFRQAPGKEREFVAAISESGLNTYYRDSVKGRFGISRDNAKNTVYLQMNTLTAEDTAVYFCAAAPGYMTTDSQYYLGNKYQYWGQGTQVTVSS
notes: expressed in CHO cells
B3 came in with a dissociation constant Kd in assay [1] of 104 nM.

B4: antibody 6 (antibody, V domains shown)
VH: QVQLVESGGGLVQPGGSLRLSCAASRAIFPEYSIAWFRQAPGKEREGVALVSRIGDRVDYADSVKGRFTISRDNAKNTVYLQMNSLKPEDTAVYHCAAGQLSSSTYYGDEYVYWGQGTQVTVSS
notes: expressed in CHO cells
The molecule B4 returned a Kd in assay [1] of 2.88 nM.

B5: antibody 9 (antibody, V domains shown)
VH: QVQLVESGGGSVQAGGSLRLSCAASGRTFSDYVMGWFRQAPGKEREFVGTITRIGGMPYYADFVKGRFTISRDYAKNAGYLQLNNLKPEDTALYYCALDLRLRLGVTPREYDYWGQGTQVTVSS
notes: expressed in CHO cells
Turning to B5, binding in assay [1] was characterised by a dissociation constant (Kd) of 5.56 nM.

B6: antibody 7 (antibody, V domains shown)
VH: EVQVVESGGGLVQAGGSLRLSCAASGRTFSNYNVGWFRQAPGKEREFLATISESGGSTYYADSVKGRFTISRDNGINMVYLQMSSLKPEDTAVYYCAESRIFSFSYADGRGYAYWGQGTQVTVFS
notes: expressed in CHO cells
B6 came in with a Kd in assay [1] of 9.64 nM.

B7: antibody 10-hu4 (antibody, V domains shown)
VH: EVQLVESGGGLVQPGGSLRLSCAASGITFSRSVMGWFRQAPGKLRELVAGITSDDNTDYADSVKGRFTISRDNSKNTLYLQMNSLRAEDTAVYYCNILPDSRLGWGQGTLVTVSS
In assay [2], B7 gave a half-maximal effective concentration (EC50) of 0.00719 µg/mL.

B8: antibody 10-hu1 (antibody, V domains shown)
VH: EVQLVESGGGLVQPGGSLRLSCAASGITFSRSVMGWFRQAPGKLRELVSGITSDDNTDYADSVKGRFTISRDNSKNTLYLQMNSLRAEDTAVYYCARLPDSRLGWGQGTLVTVSS
As for B8, the EC50 in assay [2] is 0.378 µg/mL.

B9: antibody 10-hu5 (antibody, V domains shown)
VH: EVQLVESGGGLVQPGGSLRLSCAVSGITFSRSVMGWFRQAPGKLRELVAGITSDDNTDYADSVKGRFTISRDNSKNTLYLQMNSLRAEDTAVYYCNILPDSRLGWGQGTLVTVSS
For B9, a half-maximal effect in assay [2] (EC50) was put at 0.0104 µg/mL.

B10: antibody 10-hu3 (antibody, V domains shown)
VH: EVQLVESGGGLVQPGGSLRLSCAASGITFSRSVMGWFRQAPGKLRELVAGITSDDNTDYADSVKGRFTISRDNSKNTLYLQMNSLRAEDTAVYYCAILPDSRLGWGQGTLVTVSS
B10: the EC50 in assay [2] was determined as 0.0118 µg/mL.

B11: antibody 10-hu2 (antibody, V domains shown)
VH: EVQLVESGGGLVQPGGSLRLSCAASGITFSRSVMGWFRQAPGKLRELVAGITSDDNTDYADSVKGRFTISRDNSKNTLYLQMNSLRAEDTAVYYCARLPDSRLGWGQGTLVTVSS
Molecule B11 displayed an EC50 in assay [2] of 0.0246 µg/mL.

B12: antibody 18-hu1 (antibody, V domains shown)
VH: EVQLVESGGGLVQPGGSLRLSCAASGIRFSIANMGWYRQAPGKLHEMVSGITSDGFTNYADSVKGRFTISRDNSKNTLYLQMNSLRAEDTAVYYCAKFPTRHYWGQGTLVTVSS
In assay [2], B12 registered an EC50 of 0.0348 µg/mL.

B13: antibody 18-hu2 (antibody, V domains shown)
VH: EVQLVESGGGLVQPGGSLRLSCAASGIRFSIANMGWYRQAPGKLHEMVAGITSDGFTNYADSVKGRFTISRDNSKNTLYLQMNSLRAEDTAVYYCAKFPTRHYWGQGTLVTVSS
In assay [2], B13 came in with an EC50 of 0.0105 µg/mL.
